# Residue numbers refer to the chain shown, from its start. Names and notes keep the numbering of the source.
# B1: hJovi-1 variant IgG, VH T28K, Y32F, A100N; VL unmutated (antibody, V domains shown)
# VH: QVQLVQSGAEVKKPGASVKVSCKASGYKFTGFVMHWVRQAPGQGLEWMGFINPYNDDIQSNERFRGRVTMTRDTSISTAYMELSRLRSDDTAVYYCARGNGYNFDGAYRFFDFWGQGTMVTVSS
# VL: DIVMTQSPLSLPVTPGEPASISCRSSQRLVHSNGNTYLHWYLQKPGQSPRLLIYRVSNRFPGVPDRFSGSGSGTDFTLKISRVEAEDVGVYYCSQSTHVPYTFGQGTKLEIK
# notes: IgG format; also called anti-TRBC2 triple mutant
# B2: hJovi-1 variant IgG, VH N103W, T28K, Y32F, A100N; VL N35K (antibody, V domains shown)
# VH: B1 VH with N103W
# VL: B1 VL with N35K
# notes: IgG format
# B3: hJovi-1 variant IgG, VH T28K, Y32F, A100N, N103F; VL unmutated (antibody, V domains shown)
# VH: B1 VH with N103F
# VL: B1 VL
# notes: IgG format
# B4: hJovi-1 variant IgG, VH N103F, T28K, Y32F, A100N; VL N35M (antibody, V domains shown)
# VH: B1 VH with N103F
# VL: B1 VL with N35M
# notes: IgG format
# B5: hJovi-1 variant IgG, VH N103E, T28K, Y32F, A100N; VL N35M (antibody, V domains shown)
# VH: B1 VH with N103E
# VL: B1 VL with N35M
# notes: IgG format
# B6: hJovi-1 variant IgG, VH T28K, Y32F, A100N, N103F; VL N35K (antibody, V domains shown)
# VH: B1 VH with N103F
# VL: B1 VL with N35K
# notes: IgG format
# B7: hJovi-1 variant IgG, VH T28K Y32F A100N; VL R55K (antibody, V domains shown)
# VH: B1 VH
# VL: B1 VL with R55K
# notes: IgG format
# B8: hJovi-1 variant IgG, VH N103S, T28K, Y32F, A100N; VL N35Y (antibody, V domains shown)
# VH: B1 VH with N103S
# VL: B1 VL with N35Y
# notes: IgG format
# B9: hJovi-1 variant IgG, VH T28K, Y32F, A100N, N103A; VL unmutated (antibody, V domains shown)
# VH: B1 VH with N103A
# VL: B1 VL
# notes: IgG format
# B10: hJovi-1 variant IgG, VH N103W, T28K, Y32F, A100N; VL N35M (antibody, V domains shown)
# VH: B1 VH with N103W
# VL: B1 VL with N35M
# notes: IgG format
# B11: hJovi-1 variant IgG, VH N103L, T28K, Y32F, A100N; VL N35F (antibody, V domains shown)
# VH: B1 VH with N103L
# VL: B1 VL with N35F
# notes: IgG format
# B12: hJovi-1 variant IgG, VH N103L, T28K, Y32F, A100N; VL N35R (antibody, V domains shown)
# VH: B1 VH with N103L
# VL: B1 VL with N35R
# notes: IgG format
# B13: hJovi-1 variant IgG, VH T28K, Y32F, A100N, N103L; VL unmutated (antibody, V domains shown)
# VH: B1 VH with N103L
# VL: B1 VL
# notes: IgG format
# B14: hJovi-1 variant IgG, VH N103L, T28K, Y32F, A100N; VL N35M (antibody, V domains shown)
# VH: B1 VH with N103L
# VL: B1 VL with N35M
# notes: IgG format
# B15: hJovi-1 variant IgG, VH T28K, Y32F, A100N, A107S; VL unmutated (antibody, V domains shown)
# VH: B1 VH with A107S
# VL: B1 VL
# notes: IgG format
# B16: hJovi-1 variant IgG, VH N103W, T28K, Y32F, A100N; VL N35R (antibody, V domains shown)
# VH: B1 VH with N103W
# VL: B1 VL with N35R
# notes: IgG format
# B17: hJovi-1 variant IgG, VH N103L, T28K, Y32F, A100N; VL N35Y (antibody, V domains shown)
# VH: B1 VH with N103L
# VL: B1 VL with N35Y
# notes: IgG format
# B18: hJovi-1 variant IgG, VH N103L, T28K, Y32F, A100N; VL N35K (antibody, V domains shown)
# VH: B1 VH with N103L
# VL: B1 VL with N35K
# notes: IgG format
# B19: hJovi-1 variant IgG, VH N103S, T28K, Y32F, A100N; VL N35K (antibody, V domains shown)
# VH: B1 VH with N103S
# VL: B1 VL with N35K
# notes: IgG format
# B20: hJovi-1 variant IgG, VH N103W, T28K, Y32F, A100N; VL N35F (antibody, V domains shown)
# VH: B1 VH with N103W
# VL: B1 VL with N35F
# notes: IgG format
# B21: hJovi-1 variant IgG, VH G31S, T28K, Y32F, A100N; VL unmutated (antibody, V domains shown)
# VH: B1 VH with G31S
# VL: B1 VL
# notes: IgG format
# B22: hJovi-1 variant IgG, VH N103M, T28K, Y32F, A100N; VL N35F (antibody, V domains shown)
# VH: B1 VH with N103M
# VL: B1 VL with N35F
# notes: IgG format
# B23: hJovi-1 variant IgG, VH N103F, T28K, Y32F, A100N; VL N35Y (antibody, V domains shown)
# VH: B1 VH with N103F
# VL: B1 VL with N35Y
# notes: IgG format
# B24: hJovi-1 variant IgG, VH T28K, G31R, Y32F, A100N; VL unmutated (antibody, V domains shown)
# VH: B1 VH with G31R
# VL: B1 VL
# notes: IgG format
# B25: hJovi-1 variant IgG, VH T28K, Y32F, A100N, N103E; VL unmutated (antibody, V domains shown)
# VH: B1 VH with N103E
# VL: B1 VL
# notes: IgG format
# B26: hJovi-1 variant IgG, VH N103S, T28K, Y32F, A100N; VL N35M (antibody, V domains shown)
# VH: B1 VH with N103S
# VL: B1 VL with N35M
# notes: IgG format
# B27: hJovi-1 variant IgG, VH N103S, T28K, Y32F, A100N; VL N35F (antibody, V domains shown)
# VH: B1 VH with N103S
# VL: B1 VL with N35F
# notes: IgG format
# B28: hJovi-1 variant IgG, VH T28K, Y32F, A100N, N103H; VL unmutated (antibody, V domains shown)
# VH: B1 VH with N103H
# VL: B1 VL
# notes: IgG format
# B29: hJovi-1 variant IgG, VH N103F, T28K, Y32F, A100N; VL N35F (antibody, V domains shown)
# VH: B1 VH with N103F
# VL: B1 VL with N35F
# notes: IgG format
# B30: hJovi-1 variant IgG, VH N103S, T28K, Y32F, A100N; VL N35R (antibody, V domains shown)
# VH: B1 VH with N103S
# VL: B1 VL with N35R
# notes: IgG format
# B31: hJovi-1 variant IgG, VH G31R, Y32F, A100N; VL unmutated (antibody, V domains shown)
# VH: B1 VH with K28T, G31R
# VL: B1 VL
# notes: IgG format
# Target: T1, Recombinant purified TRBC2 (human, UniProt A0A5B9 1-129, limits assumed)
# T1 construct: Construct not described (may be a soluble TCR carrying TRBC2); also called TCR beta constant region 2; soluble recombinant biotinylated TRBC2
# Assay: SPR, IgG captured on anti-human Fc, TRBC2 as analyte
# Description: (§1) A series S CM5 sensor chip was immobilised via amine coupling, with an anti-human Fc capture antibody to a density of 9000-10000 RU, using a Biacore T200 instrument. HBS-P+ buffer was used as running buffer in all experimental conditions. The test anti-TRBC2 antibodies (Table 1) were captured on flow cells 2, 3 and 4 to a density of 100-300 RU. Recombinant purified TRBC1 or TRBC2 at known concentrations were used as the ‘analyte’ and injected over the respective flow cells with 150s contact time and 300s dissociation at 30 μl/minute of flow rate. In each experiment, flow cell 1 was unmodified and used for reference subtraction. A ‘0 concentration’ sensorgram of buffer alone was used as a double reference subtraction to factor for drift. Data were fit to a 1:1 Langmuir binding model. Since a capture system was used, a local Rₘₐₓ parameter was used for the data fitting in each case.
# T1 sequence (A0A5B9 1-129 limits assumed): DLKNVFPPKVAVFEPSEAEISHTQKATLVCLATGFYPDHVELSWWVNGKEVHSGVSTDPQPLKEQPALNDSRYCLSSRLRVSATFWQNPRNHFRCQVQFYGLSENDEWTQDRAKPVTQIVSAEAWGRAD
row,Kd,Binder
1,0.432 µM,B1
2,0.417 µM,B2
3,0.27 µM,B3
4,0.13 µM,B4
5,2.13 µM,B5
6,0.294 µM,B6
7,0.165 µM,B7
8,1.88 µM,B8
9,0.714 µM,B9
10,0.611 µM,B10
11,0.369 µM,B11
12,0.201 µM,B12
13,0.302 µM,B13
14,0.364 µM,B14
15,1.16 µM,B15
16,0.39 µM,B16

row,Kd,Binder
1,0.48 µM,B17
2,0.187 µM,B18
3,0.851 µM,B19
4,0.51 µM,B20
5,1.17 µM,B21
6,0.13 µM,B22
7,0.501 µM,B23
8,4.95 µM,B24
9,1.3 µM,B25
10,1.83 µM,B26
11,1.56 µM,B27
12,0.416 µM,B28
13,0.459 µM,B29
14,0.917 µM,B30
15,1.36 µM,B31

# Target: T2, Recombinant purified TRBC1 (human, UniProt P01850 1-129, limits assumed)
# T2 construct: Construct not described (may be a soluble TCR carrying TRBC1); also called TCR beta constant region 1; soluble recombinant biotinylated TRBC1
# Assay: SPR, IgG captured on anti-human Fc, TRBC1 as analyte
# Description: as §1
# T2 sequence (P01850 1-129 limits assumed): as the sequence (A0A5B9 1-129 limits assumed) above, with K3N, N4K, K9E, Y36F counted along it
row,Kd,Binder
1,2.73 µM,B1
2,1.68 µM,B2
3,1.06 µM,B3
4,0.459 µM,B4
5,5.83 µM,B5
6,0.881 µM,B6
7,0.962 µM,B7
8,7.83 µM,B8
9,3.39 µM,B9
10,2.28 µM,B10
11,1.38 µM,B11
12,0.81 µM,B12
13,1.28 µM,B13
14,1.5 µM,B14
15,3.59 µM,B15
16,1.73 µM,B16

row,Kd,Binder
1,1.93 µM,B17
2,0.707 µM,B18
3,3.68 µM,B19
4,1.68 µM,B20
5,3.68 µM,B21
6,0.459 µM,B22
7,1.86 µM,B23
8,17.4 µM,B24
9,2.93 µM,B25
10,8.22 µM,B26
11,6.58 µM,B27
12,2.02 µM,B28
13,1.61 µM,B29
14,3.93 µM,B30
15,3.14 µM,B31

# — patent US20220041718A1 (AUTOLUS, published 2022)
